In US20230212554A1 (published 2023) one finds EC50 data, which are given here for five molecules.

The labels stand for the following.
B1: NP13 (antibody, V domains shown)
VH: EVQLVESGGGLVQPGGSLRLSCAASGFTINNYGIHWVRQAPGKGLEWVASIGPYGGSTYYADSVKGRFTISADTSKNTAYLQMNSLRAEDTAVYYCARFGYFNWLDMDYWGQGTLVTVSS
VL: DIQMTQSPSSLSASVGDRVTITCRASQDVGYWVAWYQQKPGKAPKLLISSASGLYSGVPSRFSGSGSGTDFTLTISSLQPEDFATYYCQQGWDWPITFGQGTKVEIKR
B2: NP4 (antibody, V domains shown)
VH: EVQLVESGGGLVQPGGSLRLSCAASGFTISNSSIHWVRQAPGKGLEWVAGIGPSGGYTFYADSVKGRFTISADTSKNTAYLQMNSLRAEDTAVYYCARFHSHNSYYSYSHYGYMDYWGQGTLVTVSS
VL: B1 VL with Y31W, W32G, S50G, A51P, G53S, G91Y, W92F, D93N, W94Y
B3: NP8 (antibody, V domains shown)
VH: EVQLVESGGGLVQPGGSLRLSCAASGFTINSFGIHWVRQAPGKGLEWVAGIGPFGGSTFYADSVKGRFTISADTSKNTAYLQMNSLRAEDTAVYYCARGFYWFDYWGQGTLVTVSS
VL: DIQMTQSPSSLSASVGDRVTITCRASQDVDDSVAWYQQKPGKAPKLLIYWTRYLYSGVPSRFSGSGSGTDFTLTISSLQPEDFATYYCQQGYNYPLTFGQGTKVEIKR
B4: NP14 (antibody, V domains shown)
VH: EVQLVESGGGLVQPGGSLRLSCAASGFTIDNGGIHWVRQAPGKGLEWVASIWPSWGSTSYADSVKGRFTISADTSKNTAYLQMNSLRAEDTAVYYCARFNFGVFGVMDYWGQGTLVTVSS
VL: B3 VL with D31N, S32D, W50G, T51P, Y53G, G91Y, Y92S, N93S, Y94W
B5: NP9 (antibody, V domains shown)
VH: EVQLVESGGGLVQPGGSLRLSCAASGFTINNGWIHWVRQAPGKGLEWVAGIGPYWGFTSYADSVKGRFMISADTSKNTAYLQMNSLRAEDTAVYYCARFDSDHDHHYSYYYYYDNGYMDYWGQGTLVTVSS
VL: B3 VL with D30W, D31F, W50G, R52T, Y53S, G91Y, Y92F

Where a chain is given by its changes, count along the chain named.

The test concerns the target NPA3 (influenza A virus A/Aalborg/INS132/2009 …, UniProt P68042 1-489). Kind of test: ELISA on recombinant NP.
Turning to B1, the EC50 was determined as 9.36 nM.
Then B2, with 10.1 nM.
The value for B3 was 0.07 nM; that for B4 was 19.7 nM.
Then B5, with 4.38 nM.
